For one data set, the target named is APOBEC3G (A3G-Myc-His) (human, UniProt Q9HC16 1-384). Nature of the data set: EMSA. On the technique in general: In EMSA bound probe runs differently from free probe, usually more slowly.
For a further data set, the target named is A3G-H248A/H250A-Myc-His (human, UniProt Q9HC16 1-384, H248A;H250A). The data set can be described thus: EMSA.

From article PMC3030345 come the findings set out here.

A3G-H248A/H250A-Myc-His, sequence (Q9HC16 whole entry H248A/H250A): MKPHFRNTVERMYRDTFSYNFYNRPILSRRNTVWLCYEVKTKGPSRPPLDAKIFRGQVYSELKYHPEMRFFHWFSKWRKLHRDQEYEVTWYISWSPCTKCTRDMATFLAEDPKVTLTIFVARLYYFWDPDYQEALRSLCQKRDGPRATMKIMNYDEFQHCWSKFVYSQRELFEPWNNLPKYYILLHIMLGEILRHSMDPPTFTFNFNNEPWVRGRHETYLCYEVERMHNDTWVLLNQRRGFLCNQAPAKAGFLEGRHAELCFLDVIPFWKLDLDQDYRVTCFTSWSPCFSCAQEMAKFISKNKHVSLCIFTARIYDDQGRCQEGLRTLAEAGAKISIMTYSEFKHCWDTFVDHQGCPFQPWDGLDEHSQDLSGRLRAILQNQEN
APOBEC3G (A3G-Myc-His), sequence (Q9HC16 whole entry): as the sequence (Q9HC16 whole entry H248A/H250A) above, with A248H, A250H counted along it

B1: 43-nt ssDNA (ssDNA)
DNA: ATTATTATTATTCCAATGGATTTATTTATTTATTTATTTATTT
Take B1: the binding result with APOBEC3G (A3G-Myc-His) and in the data set with A3G-H248A/H250A-Myc-His was “binds” in each case.
